Patent US20020009726A1 (LA JOLLA CANCER RESEARCH FOUNDATION, published 2002)

Tests used:
LexA fusion of Lamin-C = molecular target: T1, LexA fusion of Lamin-C (UniProt P0A7C2 1-202; P02545 66-230); assay: yeast two-hybrid, beta-galactosidase (lacZ reporter)
T1 sequence (looked up): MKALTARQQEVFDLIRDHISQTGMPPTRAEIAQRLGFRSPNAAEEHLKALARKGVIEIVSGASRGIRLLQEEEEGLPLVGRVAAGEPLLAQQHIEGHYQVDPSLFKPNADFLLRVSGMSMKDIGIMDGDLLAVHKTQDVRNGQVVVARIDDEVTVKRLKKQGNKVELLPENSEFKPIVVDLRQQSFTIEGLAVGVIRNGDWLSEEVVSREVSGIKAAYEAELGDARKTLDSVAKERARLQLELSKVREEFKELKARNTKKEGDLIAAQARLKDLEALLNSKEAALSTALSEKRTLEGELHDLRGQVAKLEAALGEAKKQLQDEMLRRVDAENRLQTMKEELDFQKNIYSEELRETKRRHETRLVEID
Procedure: (§1) The 166 clones were cured of LexA/CD40-encoding plasmids by growing the cells in tryptophan-containing medium. […] The mated cells were selected for growth in medium lacking tryptophan and leucine to obtain cells that contained both a pACT-B cell clone and a LexA-fusion protein. Colonies were transferred to histidine-deficient plates or histidine-containing media with X-Gal. Colonies expressing β-gal activity were identified using a plate assay and a filter assay. The plate assay was performed on the X-Gal containing plates -12 hr after plating according to previous methods (see Chien et al., Proc. Natl. Acad. Sci., USA 88:9578-9582 (1991), which is incorporated herein by reference). The β-gal filter assay was performed after 1 hr culture as described previously (Sato et al., supra, 1994; Breeden and Nasmyth, Cold Spring Harbor Symp. Quant. biol. 50:643-650 (1985), which is incorporated herein by reference).

[1] = molecular target: LexA fusion of Ha-Ras (V12) (UniProt P0A7C2 1-202; P01112 1-189, limits assumed); assay: yeast two-hybrid, growth on histidine-deficient medium (HIS3 reporter)
Procedure: as §1

[2] = molecular target: T2, LexA fusion of Bcl-2 (positions 83-218) (UniProt P0A7C2 1-202; P10415 83-218); assay: as above
T2 construct: also called Bcl-2 (83-218)
Procedure: as §1

binding result (LexA fusion of Lamin-C): no binding | binding result [1]: no binding | binding result [2]: no binding
B1: CAP-1 (pACT2229/GAL4 fusion) (other, not shown: small tags and cut ends)
chain: HDQMLSVHDIRLADMDLRFQVLETASYNGVLIWKIRDYKRRKQEAVMGKTLSLYSQPFYTGYFGYKMCARVYLNGDGMGKGTHLSLFFVIMRGEYDALLPWPFKQKVTLMLMDQGSSRRHLGDAFKPDPNSSSFKKPTGEMNIASGCPVFVAQTVLENGTYIKDDTIFIKVIVDTSDLPDP
notes: Yeast two-hybrid prey; also called pACT121; CD40 associated protein-1
